# Experimental data as given in patent US20240382586A1 (TAKIS S R L, published 2024).
# Like-named read-outs stand apart in the source and are kept apart here.
# Tests used:
# [1] = target: T1, SARS-CoV-2 spike receptor-binding domain (RBD), recombinant (SARS-CoV-2, UniProt P0DTC2 319-541); experiment: ELISA on RBD
# [2] = target: T1, SARS-CoV-2 spike receptor-binding …; experiment: SPR, Carterra LSA
# [3] = target: RBD-6×His protein, RBD WT of the SARS-CoV-2 spike protein (SARS-CoV-2, UniProt P0DTC2 319-541); experiment: ELISA on recombinant RBD
# [4] = target: SARS-CoV-2 spike receptor-binding domain (RBD), recombinant (SARS-CoV-2, UniProt P0DTC2 319-541); experiment: SPR, Carterra LSA; remark: listed apart in the source
# [5] = target: T2, SARS-CoV-2 spike receptor-binding domain, wild type (RBD-6×His) (SARS-CoV-2, UniProt P0DTC2 319-541)
# [6] = target: RBD fragment of the SARS-CoV-2 spike protein (RBD WT), recombinant (SARS-CoV-2, UniProt P0DTC2 319-541); experiment: SPR Carterra LSA
# [7] = target: T2, SARS-CoV-2 spike receptor-binding …; experiment: ELISA, coated RBD-6His
# [8] = target: T3, full-length spike protein (coated in ELISA) (SARS-CoV-2, UniProt P0DTC2 16-1213)
# [9] = target: T2, SARS-CoV-2 spike receptor-binding …; remark: listed apart in the source
# [10] = target: T2, SARS-CoV-2 spike receptor-binding …; remark: listed apart in the source
# [11] = target: T3, full-length spike protein (coated in …); remark: listed apart in the source
# [12] = target: T2, SARS-CoV-2 spike receptor-binding …; remark: listed apart in the source
# [13] = target: T2, SARS-CoV-2 spike receptor-binding …; remark: listed apart in the source
# [14] = target: T2, SARS-CoV-2 spike receptor-binding …; remark: listed apart in the source
binder,measurement,setting,value
"2-5C4 (antibody, V domains shown) VH: EVQLVESGGGLIQPGGSLRLSCAASGLTVSSNYMNWVRQAPGKGLEWVSVIYAGGSTFYADSVKGRFTISRDNSKNTLYLQMNSLRAEDTAFYYCARESYGMDVWGQGTTVTVSS VL: EIVLTQSPATLSLSPGERATLSCRASQSISSSYLAWYQQKPGQAPRLLIYGASSRATGIPDRFSGSGSGTDFTLTISRLEPEDFAVYYCQQYGSLYTFGQGTKVEIK",A(405 nm),[1],2.26
same,Kd,[2],0.026 nM
"2-5F8 (antibody, V domains shown) VH: QVQLVQSGAEVKKPGASVKVSCKASGYTFTNYYMHWVRQAPGQGLEWMGVINPSGASTSYAQKFQGRVTMTRDTSTSTVYMELSSLRSEDTAVYYCASWGGNIPLYYYYGMDVWGQGTTVTVSS VL: QSALTQPPSASGSPGQSVTISCTGTSSDVGGYNYVSWYQQHPGKAPKLMIYEVSKRPSGVPDRFSGSKAGNTASLTVSGLQAEDEADYYCTSYAGSNIWVFGGGTKLTVL",A(405 nm),[1],3.48
same,Kd,[2],1.5 nM
"humanised antibody 9-7A4-C2 (antibody, V domains shown, also called humanised 9-7A4-C2) VH: EVQLQQSGAEVKKPGASVKVSCKTSGYTFTEYTMYWVRQAPGQRLEWMGGINPNNGDSSYIQKFQGRVTITRDTSASTAYMELSSLRSEDTAVYYCARDGYPNSYAMDYWGQGTLVTVSS VL: not shown",binding result,[3],binds
"3-12B12 (antibody, V domains shown) VH: EVQLQQSGAELVRPGALVKLSCKASGFNIKDYYMHWVKQRPEQGLEWIGWIDPENGNSIYDPKFQGKASITADTSFNTVNLHLSSLTSEDTAVYYCAPYYYDSTYVGTMDYWGQGTSVTVSS VL: QIVLTQSPAIMSASPGEKVTMTCSASSSVGYMYWYQQKPGSSPRLLIYDTSNLASGVPVRFGGSGSGTSYSLTISRMEAEDAATYYCQQWSSYPPRTFGGGTKLEIK",Kd,[4],0.0165 nM
"9-2H7-D7 chimera (antibody, V domains shown) VH: EVQLQQSGPELVKPGASVTISCKTSGYTFTEYTMYWVKQSHGKSLEWIGGINPYIGDTSYNQNFKGKATLTVDKSSSTAYMELRSLTSEDSAVYYCARDGYPDYSAMDFWGQGTSVTVSS VL: DIVMSQSPSSLAVSVGEKVTMNCKSSQNLLYSSNQKNYLAWYQQKPGQSPKLLIYWASTRESGVPDRFTGSGSGTDFTLTISSVKAEDLAVYSCQQYYTYPWTFGGGTKLEIK",EC50 (read off the curve),[5],~0.05 µg/mL
"9-2H7 (antibody, V domains shown) VH: EVQLQQSGPELVKPGASVTISCKTSGYTFTEYTMYWVKQSHGKSLEWIGGINPYIGDTSYNQNFKGKATLTVDKSSSTAYMELRSLTSEDSAVYYCARDGYPDYSAMDFWGQGTSVTVSS VL: DIVMSQSPSSLAVSVGEKVTMNCKSSQNLLYSSNQKNYLAWYQQKPGQSPKLLIYWASTRESGVPDRFTGSGSGTDFTLTISSVKAEDLAVYSCQQYYTYPWTFGGGTKLEIK",Kd,[6],0.00977 nM
"9-7A4-C2 (mouse) (antibody, V domains shown) VH: EVQLQQSGPELVKPGASVKISCKTSGYTFTEYTMYWVKQSHGKSLEWIGGINPNNGDSSYIQKFKGKATLTVDESSSTAYMELRSLTSEDSAVYYCARDGYPNSYAMDYWGQGTSVTVSS VL: DIVMSQSPSSLAVSVGDKVTMSCKSSQSLLYSTNQKNYLAWYQQKPGQSPKLLIYWASTRESGVPDRFTGSGSGTDFTLTIGSVRPEDLAVYYCQQYYSYPWTFGGGTKLEIK",IC50,[7],0.0133 µg/mL
same,IC50,[8],0.0027 µg/mL
same,Kd,[9],0.643 nM
"9-2H7-D7 (mouse) (antibody, V domains shown) VH: EVQLQQSGPELVKPGASVTISCKTSGYTFTEYTMYWVKQSHGKSLEWIGGINPYIGDTSYNQNFKGKATLTVDKSSSTAYMELRSLTSEDSAVYYCARDGYPDYSAMDFWGQGTSVTVSS VL: DIVMSQSPSSLAVSVGEKVTMNCKSSQNLLYSSNQKNYLAWYQQKPGQSPKLLIYWASTRESGVPDRFTGSGSGTDFTLTISSVKAEDLAVYSCQQYYTYPWTFGGGTKLEIK",IC50,[7],0.0269 µg/mL
same,Kd,[10],0.0515 nM
same,IC50,[11],0.0046 µg/mL
"humanised antibody 9-2H7-D7 (antibody, V domains shown, also called humanised 9-2H7-D7) VH: QVQLQQSGAEVKKPGASVKISCKTSGYTFTEYTMYWVKQSHGKSLEWMGGINPYIGDTSYNQNFKGRVTMTRDKSTSTAYMELSSLTSEDSAVYYCARDGYPDYSAMDFWGQGTSVTVSS VL: DIVMTQSPSSLAVSVGERVTINCKSSQNLLYSSNNKNYLAWYQQKPGQSPKLLIYWASTRESGVPDRFSGSGSGTDFTLTISSVQAEDVAVYSCQQYYTYPWTFGGGTKLEIK",binding result,[3],binds
"9-7A4 (antibody, V domains shown) VH: EVQLQQSGPELVKPGASVKISCKTSGYTFTEYTMYWVKQSHGKSLEWIGGINPNNGDSSYIQKFKGKATLTVDESSSTAYMELRSLTSEDSAVYYCARDGYPNSYAMDYWGQGTSVTVSS VL: DIVMSQSPSSLAVSVGDKVTMSCKSSQSLLYSTNQKNYLAWYQQKPGQSPKLLIYWASTRESGVPDRFTGSGSGTDFTLTIGSVRPEDLAVYYCQQYYSYPWTFGGGTKLEIK",Kd,[6],0.735 nM
"VH1/VL1 (antibody, V domains shown, also called chimeric antibody 9-8F2-B11, combination VH1/VL1) VH: EVQLQQSGAELVKPGASVKLSCTASGFNIKETYVHWVKQRPEQGLEWIGRIDPAIGDSEYDPKFQGKATVTADTSSNTAYLQLSRLTSEDTAVYYCARTWGPFFDFWGQGTTLTVSS VL: DVVMTQTPLSLPVSLGDQASISCRSSQSLVHSHGNTFLHWYLQKPGQSPKVLIYKVSSRFSGVPDRFSGSGAGTDFTLKISRVEAEDLGVYFCSQSTHVPYTFGGGTKLEIK",EC50 (read off the curve),[12],~0.1 µg/mL
"9-8F2-B11 (mouse) (antibody, V domains shown) VH: EVQLQQSGAELVKPGASVKLSCTASGFNIKETYVHWVKQRPEQGLEWIGRIDPAIGDSEYDPKFQGKATVTADTSSNTAYLQLSRLTSEDTAVYYCARTWGPFFDFWGQGTTLTVSS VL: DVVMTQTPLSLPVSLGDQASISCRSSQSLVHSHGNTFLHWYLQKPGQSPKVLIYKVSSRFSGVPDRFSGSGAGTDFTLKISRVEAEDLGVYFCSQSTHVPYTFGGGTKLEIK",IC50,[7],0.0137 µg/mL
same,IC50,[8],0.0037 µg/mL
same,Kd,[9],0.913 nM
"2-5D9 (antibody, V domains shown) VH: QVQLQESGPGLVKPSETLSLTCTVSGGSISSYYWSWIRQPPGKGLEWIGYIYYTGSTNYNPSLKSRVTISVDTSKNQFSLKLRSVTAADTAVYYCAGTYDSNLLDPWGQGTLVTVSS VL: DIQMTQSPSSLSASVGDRVTITCRASQGISNSLAWYQQKPGKAPKLLLYDVFRFESGVPSRFSGSGSGTDYTLTISSLQPDDFATYYCQQYYSTPYTFGQGTKVEIK",A(405 nm),[1],3.49
same,Kd,[2],0.544 nM
"humanised 9-8F2-B11 (VH3VL3) (antibody, V domains shown, also called 9-8F2-B11 humanised) VH: QVQLVQSGAEVKKPGASVKVSCKASGFNIKETYVHWVRQAPGQGLEWMGRIDPAIGDSEYAQKFQGRVTMTRDTSISTAYMELSRLRSDDTAVYYCARTWGPFFDFWGQGTLVTVSS VL: DIVMTQTPLSLSVTPGQPASISCKSSQSLLHSHGNTFLHWYLQKPGQSPQVLIYKVSSRFSGVPDRFSGSGSGTDFTLKISRVEAEDVGVYYCSQSTHVPYTFGQGTKLEIK",Kd,[13],2.26 nM
same,EC50 (read off the curve),[14],~0.01 µg/mL
"2-4G1 (antibody, V domains shown) VH: EVQLVQSGAEVKRPGASVKVSCKASGYTFTSYGLSWVRQAPGQGLEWMGWINTYNGHTNYAQKVQGRVTLTTDTSTSTAYMELRSLRSDDTAVYYCARVESVYYGSGTCDPWGQGTLVTVSS VL: DIQMTQSPSSLSASVGDRVTITCRASQSISSYLNWYQQKPGKAPKLLIYIASSLQSGVPSRFSGSGSGTDFTLTISSLQPEDFATYYCHQSYSSPHTFGQGTKLEIK",A(405 nm),[1],2.08
same,Kd,[2],14.4 nM
